Drawing on patent publication KR20210073785A (dated 2021), this text covers Kd for 1 molecule.

For the assay, the target named is T1, 호산구 유래 신경독(eosinophil-derived neurotoxin, EDN) (UniProt P10153 28-161).
T1 construct: also called 항원 EDN
T1 sequence (looked up): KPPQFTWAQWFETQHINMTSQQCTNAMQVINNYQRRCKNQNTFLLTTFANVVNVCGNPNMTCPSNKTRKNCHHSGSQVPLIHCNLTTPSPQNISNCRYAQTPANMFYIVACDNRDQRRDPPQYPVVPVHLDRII
The assay is described as follows: BLI (Octet), AR2G amine-reactive biosensor, antibody immobilised, EDN as analyte at 12.5, 6.25, 3.13, 1.56 and 0.78 nM, 1X kinetic buffer. A general note: BLI is a label-free optical method that tracks binding on a fibre tip over time.

B1: 단일클론항체 Anti-6C5 (antibody, V domains shown)
VH: EVQLQQPGPELVKPGASVKISCKASAYSFTDYIMLWVKQSHGKSLEWIGNIHPYYGSSSYNLKFKGKATLTVDKSSSTAYMQLNSLTSEDSAVYYCAREVGFGKGGFDYWGQGTTLTVSS
VL: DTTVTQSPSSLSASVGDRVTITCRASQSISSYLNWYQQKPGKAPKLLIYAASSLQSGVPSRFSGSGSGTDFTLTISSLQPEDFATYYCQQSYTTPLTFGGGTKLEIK
notes: Whole monoclonal antibody produced from hybridoma cell line 6C5 (culture supernatant); The heavy chain ran at 50 kDa on reducing SDS-PAGE; also called Anti-6C5(6C5)
What is called Kd is the free concentration of one partner at which half of the binding sites on the other are occupied at equilibrium, for simple one-to-one binding. For B1, binding was characterised by a dissociation constant (Kd) of 0.0576 nM. In other words, the picomolar range.
